The labels stand for the following.
B1: Carbonic anhydrase-related protein (Homo sapiens), P35219 (parent)
chain: MADLSFIEDTVAFPEKEEDEEEEEEGVEWGYEEGVEWGLVFPDANGEYQSPINLNSREARYDPSLLDVRLSPNYVVCRDCEVTNDGHTIQVILKSKSVLSGGPLPQGHEFELYEVRFHWGRENQRGSEHTVNFKAFPMELHLIHWNSTLFGSIDEAVGKPHGIAIIALFVQIGKEHVGLKAVTEILQDIQYKGKSKTIPCFNPNTLLPDPLLRDYWVYEGSLTIPPCSEGVTWILFRYPLTISQLQIEEFRRLRTHVKGAELVEGCDGILGDNFRPTQPLSDRVIRAAFQ
partner: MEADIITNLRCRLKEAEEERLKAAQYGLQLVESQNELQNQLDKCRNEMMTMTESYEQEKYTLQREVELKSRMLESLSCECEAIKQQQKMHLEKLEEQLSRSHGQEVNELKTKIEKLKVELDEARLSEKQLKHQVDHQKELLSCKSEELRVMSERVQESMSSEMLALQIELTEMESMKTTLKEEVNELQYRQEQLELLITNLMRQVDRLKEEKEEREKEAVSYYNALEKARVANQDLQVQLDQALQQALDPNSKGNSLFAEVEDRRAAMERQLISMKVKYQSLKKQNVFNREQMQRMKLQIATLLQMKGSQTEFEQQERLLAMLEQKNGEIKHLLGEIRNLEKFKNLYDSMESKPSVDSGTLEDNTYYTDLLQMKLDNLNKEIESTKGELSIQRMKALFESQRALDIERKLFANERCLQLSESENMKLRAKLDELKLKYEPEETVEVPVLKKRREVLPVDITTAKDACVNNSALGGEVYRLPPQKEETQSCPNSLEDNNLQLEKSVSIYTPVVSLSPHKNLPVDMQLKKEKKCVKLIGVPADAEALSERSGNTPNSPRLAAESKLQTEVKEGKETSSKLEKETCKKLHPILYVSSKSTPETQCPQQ
B2: Emerin (Homo sapiens), P50402 (parent)
chain: MDNYADLSDTELTTLLRRYNIPHGPVVGSTRRLYEKKIFEYETQRRRLSPPSSSAASSYSFSDLNSTRGDADMYDLPKKEDALLYQSKGYNDDYYEESYFTTRTYGEPESAGPSRAVRQSVTSFPDADAFHHQVHDDDLLSSSEEECKDRERPMYGRDSAYQSITHYRPVSASRSSLDLSYYPTSSSTSFMSSSSSSSSWLTRRAIRPENRAPGAGLGQDRQVPLWGQLLLFLVFVIVLFFIYHFMQAEEGNPF
partner: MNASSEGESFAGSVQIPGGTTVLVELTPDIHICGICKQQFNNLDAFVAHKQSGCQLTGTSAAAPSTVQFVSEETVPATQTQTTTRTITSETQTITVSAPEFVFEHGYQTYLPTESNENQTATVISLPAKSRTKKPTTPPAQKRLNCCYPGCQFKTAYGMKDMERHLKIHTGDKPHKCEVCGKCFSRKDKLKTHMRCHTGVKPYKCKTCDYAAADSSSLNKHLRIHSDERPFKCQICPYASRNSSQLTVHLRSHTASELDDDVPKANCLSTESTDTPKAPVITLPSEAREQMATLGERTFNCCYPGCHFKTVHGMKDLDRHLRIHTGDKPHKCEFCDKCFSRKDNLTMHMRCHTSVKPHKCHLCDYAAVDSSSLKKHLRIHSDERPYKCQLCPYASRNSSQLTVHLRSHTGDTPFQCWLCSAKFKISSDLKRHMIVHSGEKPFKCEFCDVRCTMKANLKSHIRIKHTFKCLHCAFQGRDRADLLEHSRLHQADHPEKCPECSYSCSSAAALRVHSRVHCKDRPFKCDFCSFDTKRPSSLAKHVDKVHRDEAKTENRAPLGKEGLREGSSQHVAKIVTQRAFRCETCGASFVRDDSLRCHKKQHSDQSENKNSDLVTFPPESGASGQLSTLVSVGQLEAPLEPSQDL
B3: Sulfotransferase 2B1 (Homo sapiens), O00204 (parent)
chain: MDGPAEPQIPGLWDTYEDDISEISQKLPGEYFRYKGVPFPVGLYSLESISLAENTQDVRDDDIFIITYPKSGTTWMIEIICLILKEGDPSWIRSVPIWERAPWCETIVGAFSLPDQYSPRLMSSHLPIQIFTKAFFSSKAKVIYMGRNPRDVVVSLYHYSKIAGQLKDPGTPDQFLRDFLKGEVQFGSWFDHIKGWLRMKGKDNFLFITYEELQQDLQGSVERICGFLGRPLGKEALGSVVAHSTFSAMKANTMSNYTLLPPSLLDHRRGAFLRKGVCGDWKNHFTVAQSEAFDRAYRKQMRGMPTFPWDEDPEEDGSPDPEPSPEPEPKPSLEPNTSLEREPRPNSSPSPSPGQASETPHPRPS
B4: Acetylcholine receptor subunit gamma (Homo sapiens), P07510-2 (parent)
chain: MHGGQGPLLLLLLLAVCLGAQGRNQEERLLADLMQNYDPNLRPAERDSDVVNVSLKLTLTNLISLNEREEALTTNVWIEMQWCDYRLRWDPRDYEGLWVLRVPSTMVWRPDIVLENKSQTYSTNEIDLQLSQEDGQTIEWIFIDPEAFTENGEWAIQHRPAKMLLDPAAPAQEAGHQKVVFYLLIQRKPLFYVINIIAPCVLISSVAILIHFLPAKAGGQKCTVAINVLLAQTVFLFLVAKKVPETSQAVPLISKYLTFLLVVTILIVVNAVVVLNVSLRSPHTHSMARGVRKVFLRLLPQLLRMHVRPLAPAAVQDTQSRLQNGSSGWSITTGEEVALCLPRSELLFQQWQRQGLVAAALEKLEKGPELGLSQFCGSLKQAAPAIQACVEACNLIACARHQQSHFDNGNEEWFLVGRVLDRVCFLAMLSLFICGTAGIFLMAHYNRVPALPFPGDPRPYLPSPD
partner: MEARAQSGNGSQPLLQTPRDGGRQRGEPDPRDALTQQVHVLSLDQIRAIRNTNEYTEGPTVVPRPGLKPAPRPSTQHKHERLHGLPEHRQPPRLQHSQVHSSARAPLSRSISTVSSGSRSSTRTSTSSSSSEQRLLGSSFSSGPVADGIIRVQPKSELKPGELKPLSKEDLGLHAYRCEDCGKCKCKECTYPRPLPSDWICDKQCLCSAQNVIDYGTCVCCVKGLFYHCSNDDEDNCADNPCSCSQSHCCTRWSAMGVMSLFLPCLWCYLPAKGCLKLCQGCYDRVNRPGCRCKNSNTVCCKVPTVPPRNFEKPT

The variants in the first assay derive from B1. As to conditions: with spdly_human SPDL1, Q96EA4.
Consider S100P, for which the “effect of a mutation on the interaction” value is recorded as “disrupting interaction strength”.

Another assay covers variants of B2. To be noted: with zf64b_human ZFP64, Q9NTW7.
Regarding D72V, the “effect of a mutation on the interaction” value is “with no effect”. For the variant S54F, the “effect of a mutation on the interaction” value is listed as “with no effect”.

Consider P183H, for which the “effect of a mutation on the interaction” value was “with no effect”. P183T: the “effect of a mutation on the interaction” value is reported as “with no effect”.

In a further assay the parent is B3. As to conditions: with st1b1_human SULT1B1, O43704.
Chain of st1b1_human SULT1B1, O43704 (O43704 whole entry): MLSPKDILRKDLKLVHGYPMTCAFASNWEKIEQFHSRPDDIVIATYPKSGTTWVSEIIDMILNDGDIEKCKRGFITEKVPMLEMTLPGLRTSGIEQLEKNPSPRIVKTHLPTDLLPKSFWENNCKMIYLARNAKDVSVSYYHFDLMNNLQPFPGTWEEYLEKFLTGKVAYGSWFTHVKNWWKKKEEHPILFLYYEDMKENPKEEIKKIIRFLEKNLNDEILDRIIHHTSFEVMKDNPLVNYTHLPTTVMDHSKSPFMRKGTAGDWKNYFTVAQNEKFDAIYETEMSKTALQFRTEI
As to R230H, the “effect of a mutation on the interaction” value is “with no effect”. D191N: the “effect of a mutation on the interaction” value was “with no effect”.

In a further assay the parent is B3. To be noted: with st1a1_human SULT1A1, P50225.
Chain of st1a1_human SULT1A1, P50225 (P50225 whole entry, looked up): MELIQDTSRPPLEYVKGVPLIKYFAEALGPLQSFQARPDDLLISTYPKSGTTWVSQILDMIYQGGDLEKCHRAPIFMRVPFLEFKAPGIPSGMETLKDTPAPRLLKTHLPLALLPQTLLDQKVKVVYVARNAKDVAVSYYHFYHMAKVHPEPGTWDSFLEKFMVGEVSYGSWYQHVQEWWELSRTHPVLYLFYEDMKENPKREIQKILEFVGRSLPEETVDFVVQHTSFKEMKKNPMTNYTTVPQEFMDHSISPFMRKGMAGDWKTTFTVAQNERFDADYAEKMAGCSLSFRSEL
Consider R230H, for which the “effect of a mutation on the interaction” value is “with no effect”.

For the variant D191N, the “effect of a mutation on the interaction” value is “with no effect”.

Variants of B4 are the subject of the next assay. As to conditions: with spy2_human SPRY2, O43597.
For the variant V107G, the “effect of a mutation on the interaction” value is listed as “disrupting interaction strength”.

The values above are taken from IntAct's records for PubMed 25910212.
